From paper PMC8359183, “The periplasmic domains of Vibriocholerae ToxR and ToxS are forming a strong heterodimeric complex independent on the redox state of ToxR cysteines” (Molecular Microbiology, 2021)

Key:
[1] = target: T1, ToxSp H10_S11insC labelled with 5-iodoacetamidofluorescein (Vibrio cholerae); assay: fluorescence polarisation; conditions: both partners purified
T1 construct: also called FITC ToxSp H10_S11insC
T1 chain: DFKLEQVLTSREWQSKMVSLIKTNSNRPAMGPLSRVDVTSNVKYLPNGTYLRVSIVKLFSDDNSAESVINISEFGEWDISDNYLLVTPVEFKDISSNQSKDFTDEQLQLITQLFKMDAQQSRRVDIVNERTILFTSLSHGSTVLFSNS

[2] = target: T2, periplasmic domain of Vibrio cholerae ToxS (ToxSp) (Vibrio cholerae); assay: SEC-MALS; conditions: both partners purified
T2 chain: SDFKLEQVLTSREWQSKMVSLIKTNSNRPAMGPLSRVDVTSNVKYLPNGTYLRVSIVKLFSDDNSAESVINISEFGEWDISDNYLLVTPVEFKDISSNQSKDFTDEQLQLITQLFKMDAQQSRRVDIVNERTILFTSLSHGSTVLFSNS

B1: periplasmic domain of Vibrio cholerae ToxR, oxidized, with an intramolecular disulfide bond (ToxRp-ox) (domain or fragment)
chain: PSQTSFKPLTVVDGVAVNMPNNHPDLSNWLPSIELCVKKYNEKHTGGLKPIEVIATGGQNNQLTLNYIHSPEVSGENITLRIVANPNDAIKVCE
notes: also called pToxR-ox; ToxRp-ox-V.c
- Kd [1]: 11.6 ± 3.4 nM
- stoichiometry N [2]: 1 ToxRp per ToxSp
